Test results taken from the supplement of paper PMC10126150.
± gives the standard deviation of the averaged measurements.

Test system: ATP
Assay: switch fluorescence ratio, 500 uM ATP over buffer (Cy3 cluster intensity, sum of 5 cycles each) (fold (ratio)); higher = stronger signal-on switching upon ATP binding; sequences stand for … in TCGTCGGCAGCGTCAGATGTGTATAAGAGACAGTTTTTTTTTTTTTTTTTTTTTTTTT…TC
Settings: aptamer strand: ATP DNA aptamer (quencher-CACCTGGGGGAGTATTGCGGAGGAAGG + anchor), 100 nM annealed; ATP concentration: 500 uM
Method in brief: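 Switching-strand clusters labelled with Cy3 on a modified Illumina MiSeq flow-cell were annealed to 100 nM quencher-labelled ATP aptamer, imaged in selection buffer, and re-imaged after 15 min with 500 uM ATP at 22 °C. This was done over five cycles with NaOH stripping and re-annealing in between. The fluorescence ratio is summed target-cycle over summed buffer-cycle Cy3 intensity per cluster, averaged per switch-domain sequence, excluding clusters outside 100-1000 RFU.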
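Further: ATP exposure 15 min at 22 °C before imaging.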

Sequence | switch fluorescence ratio
AGGTATAAGG | 1.02 ± 0.019
AGGTATACCT | 1.014 ± 0.0028
AGGTATGGGG | 0.998 ± 0.034
AGGTATTAGG | 0.988 ± 0.041
AGGTCAGGCA | 1.002 ± 0.0075
AGGTCCGCGA | 2.62 ± 0.17
AGGTGAAGTT | 1.02 ± 0.062
AGGTGAGATT | 1.02 ± 0.018
AGGTGATTTT | 0.991 ± 0.013
AGGTGCAGCA | 1.06 ± 0.15
AGGTGCAGGC | 0.863 ± 0.082
AGGTGCAGTG | 1.015 ± 0.0042
AGGTGCGGGA | 1.02 ± 0.052
AGGTGGCGTG | 0.944 ± 0.022
AGGTGGCTAG | 1.026 ± 0.0052
AGGTGGGCTG | 0.963 ± 0.024
AGGTGGGGG | 0.979 ± 0.015
AGGTGGGGGA | 0.995 ± 0.031
AGGTGGGGTG | 1.03 ± 0.023
AGGTGTACTG | 1.03 ± 0.058
AGGTGTAGTG | 0.987 ± 0.016
AGGTGTCGCG | 1.01 ± 0.02
AGGTGTGCGC | 1.01 ± 0.07
AGGTGTTCTA | 1.02 ± 0.021
AGGTGTTGT | 1.03 ± 0.053

Sequence | switch fluorescence ratio
AGGTGTTTTT | 1.03 ± 0.032
AGGTTAAAA | 1.03 ± 0.075
AGGTTACCGC | 1.03 ± 0.048
AGGTTATAGG | 1.05 ± 0.091
AGGTTATGGT | 0.992 ± 0.052
AGGTTATTTG | 0.978 ± 0.015
AGGTTCAGGC | 0.9821 ± 0.0086
AGGTTCATTA | 1.01 ± 0.023
AGGTTCCACG | 0.996 ± 0.03
AGGTTCGTTC | 0.97 ± 0.039
AGGTTCTGGG | 1.01 ± 0.03
AGGTTCTTA | 0.994 ± 0.06
AGGTTGAACG | 0.985 ± 0.046
AGGTTGCATG | 1.02 ± 0.079
AGGTTGGGTA | 0.979 ± 0.015
AGGTTGGTGG | 1 ± 0.016
AGGTTGTATC | 1.01 ± 0.028
AGGTTGTTAA | 1.0085 ± 0.0005
AGGTTTATCA | 0.991 ± 0.028
AGGTTTATGC | 0.977 ± 0.066
AGGTTTCGAG | 0.997 ± 0.023
AGGTTTTGCA | 0.991 ± 0.019
AGGTTTTGGT | 1 ± 0.055
AGTAAAAAAG | 1.042 ± 0.0073
AGTAAAATGT | 1 ± 0.021

Sequence | switch fluorescence ratio
AGTAAAGGAA | 0.999 ± 0.014
AGTAAAGTTG | 0.991 ± 0.024
AGTAACAGCC | 1.001 ± 0.0066
AGTAACTTGA | 1 ± 0.013
AGTAAGGCTA | 1 ± 0.051
AGTAAGGGCT | 0.99 ± 0.015
AGTAAGGGTA | 1.0185 ± 0.00081
AGTAAGTTTT | 1.032 ± 0.0011
AGTAATAAGT | 0.979 ± 0.047
AGTAATCGCT | 0.985 ± 0.01
AGTAATTGGT | 0.9954 ± 0.0088
AGTACGAGGA | 1.04 ± 0.035
AGTACGGAAG | 1.02 ± 0.024
AGTACTGTGG | 0.996 ± 0.032
AGTAGAATCA | 1.01 ± 0.026
AGTAGAATCG | 0.992 ± 0.033
AGTAGATTAA | 0.986 ± 0.011
AGTAGGGGTT | 0.979 ± 0.02
AGTAGGTCTG | 1.04 ± 0.046
AGTAGGTTAG | 0.989 ± 0.04
AGTATAACGA | 1.06 ± 0.016
AGTATAGGGT | 0.972 ± 0.029
AGTATAGTAG | 0.983 ± 0.019
AGTATATCGC | 1 ± 0.022
AGTATATCTG | 0.974 ± 0.02

Sequence | switch fluorescence ratio
AGTATCGAGC | 1.02 ± 0.049
AGTATCTCTT | 1.0161 ± 4.4e-05
AGTATGGGGT | 0.996 ± 0.018
AGTATGTAAA | 1.02 ± 0.017
AGTATGTATA | 0.9957 ± 0.0083
AGTATGTTTC | 1 ± 0.025
AGTATTCGGG | 0.976 ± 0.058
AGTATTCTAT | 1.004 ± 0.0034
AGTATTGTCT | 1.039 ± 0.003
AGTATTGTTT | 1.01 ± 0.02
AGTCAAAAAA | 1.17 ± 0.3
AGTCAGGGTC | 0.99 ± 0.032
AGTCAGTGAC | 1.009 ± 0.0026
AGTCATATAG | 1.062 ± 0.0056
AGTCATTAGG | 1.03 ± 0.041
AGTCATTCTC | 0.9841 ± 0.003
AGTCATTGTT | 0.989 ± 0.012
AGTCCAAGGC | 1.02 ± 0.065
AGTCCCCCTA | 1.08 ± 0.069
AGTCCGGGAT | 1.07 ± 0.044
AGTCCGTGCT | 1.05 ± 0.044
AGTCCTTAAG | 1 ± 0.025
AGTCGAAAGC | 1.01 ± 0.059
AGTCGACTTT | 0.997 ± 0.011
AGTCGCCTTT | 1.02 ± 0.056

Sequence | switch fluorescence ratio
AGTCGGCGGA | 0.998 ± 0.014
AGTCGGGAGG | 0.945 ± 0.062
AGTCGGTAGG | 1.02 ± 0.012
AGTCGGTGGA | 1 ± 0.011
AGTCGTGGGC | 0.98 ± 0.041
AGTCGTGTGT | 0.971 ± 0.046
AGTCGTTGGA | 0.96555 ± 0.00011
AGTCTAGATA | 1.0302 ± 0.00084
AGTCTGAGCG | 1.03 ± 0.024
AGTCTGGGGA | 0.99 ± 0.015
AGTCTTAATA | 0.986 ± 0.034
AGTGACCTAG | 1.017 ± 0.0039
AGTGACGCGT | 1.007 ± 0.0033
AGTGACTTTT | 0.9961 ± 0.0089
AGTGAGAATT | 1.013 ± 0.01
AGTGAGCAGG | 1.11 ± 0.015
AGTGATTGCA | 1.007 ± 0.004
AGTGCACGTG | 1 ± 0.061
AGTGCATTCT | 0.995 ± 0.049
AGTGCCGGCA | 1.02 ± 0.051
AGTGCGCTAT | 1.03 ± 0.01
AGTGCGGAAG | 1.04 ± 0.066
AGTGCGTCTT | 1.01 ± 0.021
AGTGCTGATG | 0.998 ± 0.02
AGTGCTGCGA | 1.02 ± 0.044

Sequence | switch fluorescence ratio
AGTGCTGTTC | 0.929 ± 0.082
AGTGGAAATT | 1.01 ± 0.049
AGTGGACAGC | 1 ± 0.031
AGTGGACTAG | 0.989 ± 0.026
AGTGGAGCGG | 0.995 ± 0.016
AGTGGAGGT | 0.97 ± 0.041
AGTGGCACCG | 1.01 ± 0.015
AGTGGCATTA | 0.985 ± 0.028
AGTGGCCGTC | 0.974 ± 0.051
AGTGGCGTTC | 1.01 ± 0.073
AGTGGCTATC | 1.01 ± 0.018
AGTGGGAGAG | 1.02 ± 0.06
AGTGGGAGTA | 1.05 ± 0.052
AGTGGGGGGC | 0.998 ± 0.02
AGTGGGGGTA | 0.995 ± 0.028
AGTGGGTATT | 1.01 ± 0.016
AGTGGGTTCA | 0.9842 ± 0.0034
AGTGGTCCTT | 0.974 ± 0.047
AGTGGTGGG | 1.02 ± 0.068
AGTGGTGGGG | 0.966 ± 0.014
AGTGGTTCGC | 1.01 ± 0.024
AGTGGTTGAA | 0.99 ± 0.028
AGTGTAAAAA | 1.04 ± 0.078
AGTGTAAAGG | 0.991 ± 0.076
AGTGTGATCA | 0.9859 ± 0.008

Sequence | switch fluorescence ratio
AGTGTGCGGT | 0.9491 ± 0.0089
AGTGTGTCGG | 0.974 ± 0.067
AGTGTGTCTT | 0.9877 ± 0.004
AGTGTGTTAT | 0.974 ± 0.011
AGTGTTAGTT | 1 ± 0.024
AGTTAAGGCC | 1.09 ± 0.092
AGTTAATGTT | 1.01 ± 0.0026
AGTTACAGCT | 1.03 ± 0.032
AGTTACAGGG | 1.05 ± 0.019
AGTTAGACGA | 1.01 ± 0.013
AGTTAGGGCA | 0.988 ± 0.042
AGTTAGGGGT | 0.987 ± 0.02
AGTTAGGGTC | 1 ± 0.012
AGTTAGGTAG | 0.9939 ± 0.0081
AGTTAGTCTG | 1.01 ± 0.04
AGTTAGTGAC | 1.02 ± 0.024
AGTTATAAGT | 0.979 ± 0.01
AGTTATAATT | 1.005 ± 0.0076
AGTTATATGT | 0.985 ± 0.037
AGTTATCAGG | 1.06 ± 0.024
AGTTATTAGG | 1.02 ± 0.032
AGTTCAGTAT | 0.983 ± 0.019
AGTTCGGGGA | 0.992 ± 0.014
AGTTCGTAGA | 0.966 ± 0.048
AGTTGAGCAG | 1.02 ± 0.021

Sequence | switch fluorescence ratio
AGTTGAGGGG | 0.985 ± 0.034
AGTTGATCCA | 0.982 ± 0.015
AGTTGCGGGA | 1.0114 ± 0.00031
AGTTGGAAAA | 0.997 ± 0.01
AGTTGGAGGA | 0.991 ± 0.015
AGTTGGGGAT | 0.986 ± 0.04
AGTTGGGGGT | 0.998 ± 0.025
AGTTGGGGTG | 0.989 ± 0.034
AGTTGGTAAT | 0.963 ± 0.06
AGTTGGTTAG | 1.004 ± 0.005
AGTTGTCTCG | 1.01 ± 0.058
AGTTGTTGGA | 1 ± 0.047
AGTTTAAAAC | 1.02 ± 0.0077
AGTTTACTGG | 0.9626 ± 0.0022
AGTTTACTGT | 1.02 ± 0.072
AGTTTATGTG | 0.9746 ± 0.0073
AGTTTCCGGA | 0.992 ± 0.016
AGTTTCTTAC | 1.01 ± 0.024
AGTTTGAAGG | 0.9894 ± 0.0073
AGTTTGAGTA | 1.01 ± 0.027
AGTTTGATGT | 1 ± 0.023
AGTTTGCGGG | 1.006 ± 0.0094
AGTTTGGATA | 0.97 ± 0.028
AGTTTGGGGA | 0.979 ± 0.015
AGTTTGGGT | 0.985 ± 0.032
